Laboratory results: US20260216354A1, “ANTI-CMET ANTIBODY, ANTIBODY-DRUG CONJUGATE, AND PREPARATION METHOD THEREFOR AND USE THEREOF” (MEDILINK THERAPEUTICS (SUZHOU) CO., LTD., priority 2022, published 2026)

B1: 55A10G6: murine-derived anti-cMET monoclonal antibody; VL SEQ ID NO: 3, VH SEQ ID NO: 4 (antibody, V domains shown)
VH: QIQLQQSGPELVKPGASVKISCKASGYTFTDYYLNWVRQRPGQGLEWIGWIFPGSGNTKYIEKFKGKATLTVDTSSSTAYMLLSSLTSEDSAVYFCAGGDYGGFTYWGQGTLVAVSA
VL: DIQMTQSPPSLSASVGETVTITCGASENIYGALNWYQRKQGKSPQLLIYGATNLAAGMSSRFSGSGSGRQFSLKISSLHPDDVATYYCQNVLSEPLTFGAGTKLELK
B2: 45A5G10: murine-derived anti-cMET monoclonal antibody; VL SEQ ID NO: 1, VH SEQ ID NO: 2 (antibody, V domains shown)
VH: EVRLEESGGGFVQPGGSMKISCVASGFTFSNYWMNWVRQSPEKGLEWVAQIRLKSLNYATHYAESVKGRFTISRDDSRNSVYLQMNNLRAEDAGIYYCTEEGFAYWGRGTLVTVSA
VL: IVMTQSPASLPVSLGQRATISCRASESVDDYGVSFVNWFQQKPGQPPKLLIYTASVQESGVPARFSGSGSGTDFSLNIHPLEEDDTAMYFCQQSKEIPPTFGGGTKLEIK
B3: 41F5B2: murine-derived anti-cMET antibody of Table 1; probably clone 51D5B2 (VL SEQ ID NO: 7, VH SEQ ID NO: 8) (antibody, V domains shown)
VH: EVRLEDSGGGFVQPGGSMKISCVASGFTFSNYWMNWVRQSPEKGLEWVAQIRLKSLNYATHYAESVKGRFTISRDDSRNSVYLQMNNLRAEDAGIYYCTEEGFAYWGRGTLVTVSA
VL: IVMTQSPASLPVSLGQRATISCRASESVDDYGVSFVNWFQQKPGQPPKLLIYTASVQESGVPARFSGSGSGTDFRLNIHPLEEDDTAMYFCQQSKEIPPTFGGGTKLEIK
B4: 44H10E8: murine-derived anti-cMET monoclonal antibody; VL SEQ ID NO: 5, VH SEQ ID NO: 6 (antibody, V domains shown)
VH: QVHLQQSGAELARPGASVKMSCKASGYTFISYTIHWVKQSPGQGLEWIGYINPSSGYAKNNPKFQDKATLTADTSSTTAYIQLSSLTSEDSAVYYCTRPYGDFVDWYFDVWGTGTTVTVSS
VL: NIMMTQSPSSLAVSAGEKVTMNCKSSQSVLYFSNQKNCLAWYQQKPGQSPKLLIYWASTRESGVPDRFTGSGSGTDFTLTISSVQADDLAVYYCQQYLSSLTFGAGTKLELK

Columns and labels:
MKN45 tumor cells = test: FACS affinity of murine-derived antibodies to MKN45 tumor cells; type: binding, human
Method: (§1) 4 mice, all female, are selected from each of strains of CDT (Vital River), KM (Vital River), and Balb/c (Gempharmatech Co., Ltd.), and are enrolled into a group at about 6 weeks old. Immunization is performed using cMET-His and hcMET-mFc (Sichuan Sibowo Biotechnology Co., Ltd.), and after 2 times of booster immunization, serum titers are detected through ELISA. For a mouse with a higher ELISA protein titer, an affinity titer of tumor cells MKN-45 and a competition FACS titer of MKN45-HGF are detected through FACS. Finally, 1 mouse from each of CD1, KM, and Balb/c is selected, and the spleen and lymph node thereof are used to prepare cell suspensions for hybridoma fusion with SP2/0 mouse myeloma cells. ELISA preliminary screening is performed through human hMET-ECD-hFc antigen proteins, and after the preliminary screening, positive hybridomas are selected to be cloned. Hybridoma cells are cultured in a serum-free medium, and a collected monoclonal supernatant is purified through the ProA filler to obtain murine-derived antibodies. Affinities of the murine-derived antibodies to human MET-ECD-hFc and cyno MET-ECD-hFc proteins are detected through ELISA, and the affinity of the murine-derived antibodies to the MKN45 tumor cells and blocking of MKN45-HGF ligand competition is detected through FACS.

Cyno.cMet-ECD-hFc = test: ELISA affinity of murine-derived antibodies to cyno MET-ECD-hFc; type: binding
Method: as §1

MKN45-HGF = target: T1, MKN45-HGF (Homo sapiens, UniProt P08581); test: FACS blocking of MKN45-HGF ligand competition (murine-derived antibodies); type: binding
T1 construct: MKN45 cells expressing c-MET antigens; endogenous in cells; host or cells: MKN45
T1 sequence (P08581 25-1390): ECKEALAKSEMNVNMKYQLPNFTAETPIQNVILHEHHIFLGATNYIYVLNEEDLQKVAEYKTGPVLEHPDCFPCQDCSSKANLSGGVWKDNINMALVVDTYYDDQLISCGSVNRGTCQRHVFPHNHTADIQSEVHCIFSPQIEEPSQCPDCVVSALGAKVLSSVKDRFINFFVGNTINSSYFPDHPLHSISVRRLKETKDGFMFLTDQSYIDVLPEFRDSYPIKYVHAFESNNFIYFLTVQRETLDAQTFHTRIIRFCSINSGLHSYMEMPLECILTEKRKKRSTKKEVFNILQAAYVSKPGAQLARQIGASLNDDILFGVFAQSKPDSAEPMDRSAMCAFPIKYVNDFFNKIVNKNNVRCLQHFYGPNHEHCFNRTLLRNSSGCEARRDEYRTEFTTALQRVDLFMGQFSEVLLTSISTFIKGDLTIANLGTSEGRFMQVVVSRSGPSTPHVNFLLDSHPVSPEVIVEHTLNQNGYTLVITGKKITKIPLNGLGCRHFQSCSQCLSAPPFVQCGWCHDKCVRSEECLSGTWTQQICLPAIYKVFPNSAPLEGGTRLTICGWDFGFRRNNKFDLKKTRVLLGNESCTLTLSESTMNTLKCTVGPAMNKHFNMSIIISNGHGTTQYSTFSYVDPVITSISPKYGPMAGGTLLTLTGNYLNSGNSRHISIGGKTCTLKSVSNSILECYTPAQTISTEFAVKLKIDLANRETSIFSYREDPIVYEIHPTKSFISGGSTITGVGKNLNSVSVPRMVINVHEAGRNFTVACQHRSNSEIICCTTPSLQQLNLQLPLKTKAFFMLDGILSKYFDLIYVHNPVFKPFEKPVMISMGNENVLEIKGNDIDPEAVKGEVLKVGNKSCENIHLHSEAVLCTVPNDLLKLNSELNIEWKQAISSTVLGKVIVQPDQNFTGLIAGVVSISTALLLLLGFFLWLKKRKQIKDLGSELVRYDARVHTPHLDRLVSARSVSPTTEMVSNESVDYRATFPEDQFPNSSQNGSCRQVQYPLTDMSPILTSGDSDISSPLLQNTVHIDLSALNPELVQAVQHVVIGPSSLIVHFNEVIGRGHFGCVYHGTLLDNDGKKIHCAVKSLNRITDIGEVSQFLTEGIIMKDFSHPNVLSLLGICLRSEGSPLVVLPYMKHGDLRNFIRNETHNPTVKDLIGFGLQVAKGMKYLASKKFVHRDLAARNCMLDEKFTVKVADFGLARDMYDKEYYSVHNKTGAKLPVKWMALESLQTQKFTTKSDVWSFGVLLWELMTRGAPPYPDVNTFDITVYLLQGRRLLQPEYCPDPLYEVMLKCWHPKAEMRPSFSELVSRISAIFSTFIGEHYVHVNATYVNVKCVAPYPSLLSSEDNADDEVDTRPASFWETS
Method: as §1

cMet-ECD-hFc = target: T2, cMet-ECD-hFc (Homo sapiens, UniProt P08581); test: ELISA affinity of murine-derived antibodies to human MET-ECD-hFc; type: binding
T2 construct: made in house; host or cells: HEK293E
T2 sequence (P08581 25-932): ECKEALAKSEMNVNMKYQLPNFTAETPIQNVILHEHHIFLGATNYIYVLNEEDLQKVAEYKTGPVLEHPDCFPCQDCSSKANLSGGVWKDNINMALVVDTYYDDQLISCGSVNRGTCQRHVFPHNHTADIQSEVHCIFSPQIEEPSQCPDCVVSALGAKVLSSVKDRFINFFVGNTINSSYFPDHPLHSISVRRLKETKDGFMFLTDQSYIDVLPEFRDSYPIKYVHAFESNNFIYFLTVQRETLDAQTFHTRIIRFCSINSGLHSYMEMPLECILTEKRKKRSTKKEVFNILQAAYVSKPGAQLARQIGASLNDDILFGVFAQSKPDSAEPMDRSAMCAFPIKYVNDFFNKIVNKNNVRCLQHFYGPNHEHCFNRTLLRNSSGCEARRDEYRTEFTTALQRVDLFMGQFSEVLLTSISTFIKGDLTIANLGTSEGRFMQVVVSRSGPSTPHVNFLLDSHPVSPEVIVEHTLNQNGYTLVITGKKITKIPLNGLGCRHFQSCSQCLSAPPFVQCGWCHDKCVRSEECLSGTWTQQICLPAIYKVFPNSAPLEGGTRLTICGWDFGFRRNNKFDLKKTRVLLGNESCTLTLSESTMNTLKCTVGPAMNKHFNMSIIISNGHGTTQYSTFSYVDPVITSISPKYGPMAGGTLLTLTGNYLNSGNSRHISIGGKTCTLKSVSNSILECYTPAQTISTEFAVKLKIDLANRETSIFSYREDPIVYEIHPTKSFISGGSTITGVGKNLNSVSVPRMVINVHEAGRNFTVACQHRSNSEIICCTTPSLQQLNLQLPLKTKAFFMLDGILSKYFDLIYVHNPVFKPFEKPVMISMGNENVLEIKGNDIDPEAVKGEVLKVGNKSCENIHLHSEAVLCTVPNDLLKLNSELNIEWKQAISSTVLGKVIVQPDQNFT
Method: as §1

Row | Molecule | MKN45 (EC50 = ng/ml) (MKN45 tumor cells) [ng/mL] | Cyno.cMet-ECD-hFc (EC50 = ng/ml) (Cyno.cMet-ECD-hFc) [ng/mL] | MKN45-HGF competition (IC50 = ng/ml) (MKN45-HGF) | cMet-ECD-hFc (EC50 = ng/ml) (cMet-ECD-hFc) [ng/mL]
1 | B1 | 63.08 | 14.9 | 31.28 ng/mL | 7.701
2 | B2 | 41.25 | 10.34 | 53.28 ng/mL | 6.387
3 | B3 | 348.5 |  | No activity | 4.807
4 | B4 | 149.7 | 25.72 | 88.57 ng/mL | 15.76
